Assay results from PMC7255693 (2020).

Assays:
[1] = biological target: HDM4 peptide (TAMRA-HDM4 25-43) 25-43 (Homo sapiens), O15151
[2] = biological target: T1, CapZ peptide (TAMRA-TRTK) 265-276 (Homo sapiens, UniProt P52907, not fully specified); test: fluorescence polarization titration
T1 chain: {TAMRA}-TRTKIDWNKILS-NH2

| Binder | Kd [1] [nM] | Kd [2] [nM] |
| --- | --- | --- |
| S100A1, P23297 (protein) MGSELETAMETLINVFHAHSGKEGDKYKLSKKELKELLQTELSGFLDAQKDVDAVDKVMKELDENGDGEVDFQEYVVLVAALTVACNNFFWENS | 3670 |  |
| S100B (protein) SELEKAMVALIDVFHQYSGREGDKHKLKKSELKELINNELSHFLEEIKEQEVVDKVMETLDNDGDGECDFQEFMAFVAMVTTACHEFFEHE |  | 130 |
